In experiment [1] the target is CD40/Fc fusion protein (human) (UniProt P25942). Description: BIAcore biosensor; CD40/Fc captured on the chip; first experiment. In general terms: SPR reads the build-up and loss of mass on a sensor chip optically.
For experiment [2] the target is unchanged. The experiment in a line: BIAcore biosensor; CD40/Fc captured on the chip; first experiment; K1 (site 1).
The target is the same in experiment [3]. Description: BIAcore biosensor; CD40/Fc captured on the chip; first experiment; K2 (site 2).
Experiment [4] has the same target. The experiment in a line: BIAcore biosensor; CD40/Fc captured on the chip; second experiment; K2 (site 2).
The target is the same in experiment [5]. Description: BIAcore biosensor; CD40/Fc captured by goat anti-human IgG1 Fc on the chip, CD40-L construct at increasing concentrations; first experiment.
The target is the same in experiment [6]. The experiment in a line: BIAcore biosensor; CD40/Fc captured on the chip; second experiment; K1 (site 1).
Experiment [7] has the same target. The experiment in a line: BIAcore biosensor; CD40/Fc captured on the chip; second experiment.
Experiment [8] addresses CD40 on cells that express CD40 (UniProt P25942). The experiment in a line: cell-based or functional assay.
The target in experiment [9] is CD40/Fc fusion protein (human) (UniProt P25942). The experiment in a line: BIAcore biosensor; CD40/Fc captured on the chip; second experiment; K2 (site 2); site 1 not detected.

Chain of CD40/Fc fusion protein (human) (P25942 21-193): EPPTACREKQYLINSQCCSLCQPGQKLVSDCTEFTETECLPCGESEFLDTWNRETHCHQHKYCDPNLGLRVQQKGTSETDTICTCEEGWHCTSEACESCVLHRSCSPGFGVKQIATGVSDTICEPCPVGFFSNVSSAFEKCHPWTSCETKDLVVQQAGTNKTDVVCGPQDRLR
Chain of trimeric human CD40-L (oligomerizing zipper fusion, Example 15) (P29965 51-261 limits assumed): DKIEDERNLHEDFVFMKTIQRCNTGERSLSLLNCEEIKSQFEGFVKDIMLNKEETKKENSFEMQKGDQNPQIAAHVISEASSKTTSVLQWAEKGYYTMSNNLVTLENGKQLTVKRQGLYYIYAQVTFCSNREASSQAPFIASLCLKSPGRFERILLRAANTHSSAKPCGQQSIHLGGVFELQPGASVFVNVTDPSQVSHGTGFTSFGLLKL
Chain of CD40 on cells that express CD40 (P25942 21-277 limits assumed): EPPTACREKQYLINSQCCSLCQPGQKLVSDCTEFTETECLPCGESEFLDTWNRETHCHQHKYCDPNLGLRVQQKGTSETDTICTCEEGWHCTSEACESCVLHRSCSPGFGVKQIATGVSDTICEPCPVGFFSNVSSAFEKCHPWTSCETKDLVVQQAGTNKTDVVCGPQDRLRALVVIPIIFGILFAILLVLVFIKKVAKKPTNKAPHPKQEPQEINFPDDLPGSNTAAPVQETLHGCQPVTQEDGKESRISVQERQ

In experiment [1], “trimeric murine CD40-L (oligomerizing zipper fusion) (ligand)” displayed a Site1 (mol/mol CD40/Fc) (mol/mol CD40/Fc) of 0.02 and a Site2 (mol/mol CD40/Fc) (mol/mol CD40/Fc) of 0.44. The substance further yielded a Ka in [2] of 6e+10 M⁻¹. Besides, the Ka in [3] worked out at 1.6e+08 M⁻¹.
For “trimeric human CD40-L (oligomerizing zipper fusion, Example 15) (from UniProt P29965 51-261) (ligand)”, the Ka in experiment [4] worked out at 2.6e+07 M⁻¹; in experiment [2], 5e+09 M⁻¹; in [3] it was 7.5e+07 M⁻¹; in experiment [6] it was 6.6e+08 M⁻¹. Further, the Site1 (mol/mol CD40/Fc) (mol/mol CD40/Fc) in experiment [5] is 0.04; in experiment [7] it was 0.26. Also, the Site2 (mol/mol CD40/Fc) (mol/mol CD40/Fc) stood at 0.68 in experiment [1] and 0.41 in experiment [7].
In experiment [8], “wild type CD40 ligand/zipper domain fusion protein (WT) expressed in yeast” gave a B-cell proliferation (U/µg), Experiment 1; WT of 77 U/µg and a B-cell proliferation (U/µg), Experiment 2; WT of 15 U/µg.
Substance “monomeric human CD40-L, preparation #1 (ligand)” showed a Site2 (mol/mol CD40/Fc) (mol/mol CD40/Fc) in [7] of 1.2. Moreover, the Ka in experiment [9] is 4.6e+07 M⁻¹.
In [7], “monomeric human CD40-L, preparation #2 (ligand)” had a Site2 (mol/mol CD40/Fc) (mol/mol CD40/Fc) of 1.27. The substance further displayed a Ka in experiment [9] of 1.1e+07 M⁻¹.

Source of the values: US6391637.
